Results reported in the RNAGym collection of RNA variant scans (doi:10.1073/pnas.2313332121).
Fewer inactive variants are shown than the library holds.

B1: TPR 5TU (parent)
chain: GGAUCUUCUCGAUCUAACAAAAAAGACAAAUCUGCCACAAAGCUUGAGAGCAUCUUCGGAUGCAGAGGCGGCAGCCUUCGGUGGCGCGAUAGCGCCAACGUUCUCAACUAUGACACGCAAAACGCGUGCUCCGUUGAAUGGAGUUUAUCAUG

Variants of: B1
Assay: polymerase ribozyme fitness, log enrichment relative to wild type (log ratio); higher = more active; in vitro selection for triplet polymerase activity
In short: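 Input and output libraries were sequenced on Illumina after a single in vitro selection round, run in triplicate on PCR-built, transcribed mutant libraries of each subunit of a heterodimeric triplet polymerase ribozyme. Selection annealed libraries to a biotinylated primer, the partner subunit and triplets, incubated them frozen at −7 °C, then gel-excised extended constructs for streptavidin-bead capture and RT-PCR. Genotypes with ≥10 input reads and ≥1 read per output were kept. Fitness is the logarithm, taken in base 2, of genotype enrichment divided by wild-type enrichment, using inverse-variance-weighted replicate averages.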

Variant | polymerase ribozyme fitness (log ratio)
GGAUAUUCUCGAUCUAACAAAAAAGACAAAUCUGCCACAAAGCUCGAGAGCAUCUUCUGAUGCAGAGGCGGCAGCCUUCGGCGACGCGAUAGCGCCAACGUUCUCAACUAUGACACGCAAAACGCGUGCUCCGUUGAAUGGAGUUUAUCAUG [C5A U45C G58U U82C G84A] | -3.97
GGAUGUUCUCGAUCUAGCAUAAAAGACAAAUCUGCCACAAAGCUUGAGAGCAUCUUUGGAUGCAGUGGCGGCAGCCUUCGGUGGCCCGAUAGCGCCAACGUUCUCAGAUAUGACACGCAAAACGCGUGCUCCGUUGAAUGGAGUUUAUCAUG [C5G A17G A20U C57U A66U G86C A107G C108A] | ≤ -4.2
GGAUAUUCGCGAUCUAACAAAAAAGACAAAUCUGCCACAAAGCUUGAGAGCAUCUUCGGAUGCAGAGGCGGCAGCCUUCGGUGGCGCGAUAGGGCCAACGUUAUCAAGUAUGGCACGCAAAACGCGUGCUCCGUUGGAUGGAGUUUAUCAUG [C5A U9G C93G C103A C108G A113G A137G] | ≤ -4.2
GGAUAUUCUCGAUCUAACAAAAAAGACAAAUCUGCCACAAAGCUUGAGAGCAUCUUCGGAUGCAGAGGCGGCAGCCUUCGGUGGCGCGAUAGCGCCAACGUUCUCAACUAUGACACGCAAAACGCGUGCUCCGUUGAAUGGAGUUUAGCAUG [C5A U148G] | -3.62
GGAUAUUCUCGAUCUAACAAAAAAGACAAAUCUGCCACAAAGCUCGAGAGCAUCUUCGGAUGCUGAGGCGGCAGACUUCGGUGGCGCGAUAGCGCCAACGUUCUCAACUAUGACACGCAAAACGCGUGCUCCGUUGAAUGCAGUCUAUCUUG [C5A U45C A64U C75A G141C U145C A150U] | ≤ -4.2
GGAUAUUCUCGAUCUAACAAAAAAGACAAAUCUGCCACAAAGCAUGAGAGCAUCUUCGGAUGCAGAGGCGGCUGCCUUUGGUGGUGCGAUAGCGCCAACGUUCUCAACUAUGACACGCAAAACGCUUGCUCCGUUGAAUGGAGUUUAUCAUG [C5A U44A A73U C79U C85U G126U] | ≤ -4.2
GGAUGUUCUCGUUCUAACAAAAAAGACAAAACUGCCACAAUGCUUGAGAGCAUUUACGGAUGCAGAGGCGGCAGCCUUCGGUGGCGCAAUAGCGCCAACGUUCUCAACUAUGACACGCAAAACGCGCGCUCCGUUGCAUGAAGUUUAUCAUG [C5G A12U U31A A41U C54U U56A G88A U127C A137C G141A] | ≤ -4.2
GGAUAUUCUCGAGCUAACAAAAAAGACAAAUCUGCCACAAAGCUUGAGAGCAUCUUCGGAUGCAGAGGCGGCAGCCUUCGUUGGCGCGAUACCGCCAACGUUCUCAACUAUGACACGCAAAACGCGUGCUCCGUUGAAUGGAGUGUAUCAUG [C5A U13G G81U G92C U145G] | -2.12
GGAUAUUCUCGAUCUAACAAAAAAGACAAAUCUGCCACAAAGCUUGAGAGCAUCUUCGGAUGCAGAGGCGGCAGCCAUCGGUGGCGAGAUAGCGCCAACGUUCUCAACUAUGACACGCAAAACGCGUGCUCCGUUGAAUGGAGUUUAUCAUG [C5A U77A C87A] | ≤ -4.2
GGAUAUCCUCGAUCUAAGAAAAAAGACAAAUCUGCCACAAAGCUUGAGAGCAUCAUCAGAUGCAGAGGCGGCAGCCUUCGGUGGCGCGCUAGCGCCAACGUUCUCAACUAUGACACGCAAAACGCGUGCUCCGUUGAAUGGAGUUUAUCAUG [C5A U7C C18G U55A G58A A89C] | -1.54
GGAUGUUCUCGAUCUAGCAAAAAAGACAAAUCUGCCAAAAAGCUUGCGAGCAUCUUCGGCUGCAGAGGCGGCAGCCUUCGGCGGCGCGAUAGCGGCAACGUUCUCAACUAUGACACGCAAAAUGCGUGCUCCGUUGAAUGGAAUUUGUCAUG [C5G A17G C38A A47C A60C U82C C95G C123U G143A A147G] | ≤ -4.2
GGAUGUUCUCGCUCUAACAAAAAAGACAAAUCUGCCACAUAGCUUGAGAGCAUCUUCCGAUGCAGAGGCGGCAGCCUUCGGUUGCGCGAUAGCGCCAACGUUCUCAACUAUGACACGGAAAACGCGUGCUCCGUUGAAUGGAGUUUAUCAUG [C5G A12C A40U G58C G83U C118G] | -3.96
GGAUGUUCUCGAUCUAACAAAAAAGACAAAUCUGCCACAAAGCUUGAGAGCAUCUUCGGAUGCAGAGGCGGCAGCCUUCGGUGGCGCGAUAGCGCCAACGUUCUCAACUAUGACACGCAAAACGCGUGCUCCGUUGAAUGGAGUUUAUCAUG [C5G] | -0.157
GGAUGUUCUCGAUCUAGCAAAAAAGACAAAUCUGCCACAAAGCUUGAGAGCAUCUUCGGAUGCAGAGGCGGCAGCCUUCGGUGGCGCGAUAGCGCCAACGUUCUCAACUAUGACACGCAAAACGCGUGCUCCGUUGAAUGGAGUUUAUCAUG [C5G A17G] | -0.0409
GGAUAUUCUCGAUCUAACAAAAAAGACAAAUCUGCCACAAAGCUUGAGAGCAUCUACAGAUGCAGAGGCGGUAGCCUUCGGUGGCGUGAUAGCGCCAACGUUCUCAACGAUGACACGCAAAACGCGUGCUCCGUUAAAUGGAGCUUAUCAUG [C5A U56A G58A C72U C87U U109G G136A U144C] | -3.93
GGAUAGUCUCGAGCUAACAAAAAAGACAAAUCUGCCACAAAGCUUGAGAGCAACUUCGGAUGCAGAGGCGGCAGCCUUCGGUGGCGCGAUAGCGCCAACGUUCUCAACUAUGACAGGCAAAACGCUUGCUCCGUUGAAUGGAGUUUAUCAUG [C5A U6G U13G U53A C116G G126U] | -3.78
GGAUGUUCUCGAUCUAACAUAAAAGACAAAUCUGUCACAAAGCUUGAGAUCAUCUUCGGAUGCAGAGGCGGCAGCCUUCGGUGGCGCGAUAGUGCCAACGUUCUCAACUAUGACACGCAAAACGCGUGCUCCGUUGAAUGGAGUUUAUCAUG [C5G A20U C35U G50U C93U] | -3.76
GGAUGUUCUCGAUCUAGCAAAAAAGCCAAAUCUGCCACAUAGCUUGAGAGCAUCUUCGGAUGCAGAGGCGGCAGCCUUCGGGGGCGUGAUAGCGCCAACGUUCUCAACUAUGACACGGAAAACGCGUGAUACGUUGAAUGCAGUUUAUCAUG [C5G A17G A26C A40U U82G C87U C118G C129A C131A G141C] | ≤ -4.2
GGAUGUUCUCGAUCUAACAGAAAAGAAAAAUCUGCCACAAAGCUUGAGAGCAUCUUCGGAUGCAGAGGCGGUAGCCUUCGGUGGCGCGAUAGCGCCAACGUUCUCAACUAUGACACGCAUAACGCGUGCUCCGUUGAAUGGAGUUUAUCAUG [C5G A20G C27A C72U A120U] | ≤ -4.2
